How the values were obtained:
[1] = target: insulin receptor in the LB lymphoma cell; test: competition with native insulin for insulin receptors on LB lymphoma cells
[2] = target: insulin-degrading enzyme (IDE); test: cell-based or functional assay

insulin receptor in the LB lymphoma cell, sequence (P15208 28-748, chain 1 of 2): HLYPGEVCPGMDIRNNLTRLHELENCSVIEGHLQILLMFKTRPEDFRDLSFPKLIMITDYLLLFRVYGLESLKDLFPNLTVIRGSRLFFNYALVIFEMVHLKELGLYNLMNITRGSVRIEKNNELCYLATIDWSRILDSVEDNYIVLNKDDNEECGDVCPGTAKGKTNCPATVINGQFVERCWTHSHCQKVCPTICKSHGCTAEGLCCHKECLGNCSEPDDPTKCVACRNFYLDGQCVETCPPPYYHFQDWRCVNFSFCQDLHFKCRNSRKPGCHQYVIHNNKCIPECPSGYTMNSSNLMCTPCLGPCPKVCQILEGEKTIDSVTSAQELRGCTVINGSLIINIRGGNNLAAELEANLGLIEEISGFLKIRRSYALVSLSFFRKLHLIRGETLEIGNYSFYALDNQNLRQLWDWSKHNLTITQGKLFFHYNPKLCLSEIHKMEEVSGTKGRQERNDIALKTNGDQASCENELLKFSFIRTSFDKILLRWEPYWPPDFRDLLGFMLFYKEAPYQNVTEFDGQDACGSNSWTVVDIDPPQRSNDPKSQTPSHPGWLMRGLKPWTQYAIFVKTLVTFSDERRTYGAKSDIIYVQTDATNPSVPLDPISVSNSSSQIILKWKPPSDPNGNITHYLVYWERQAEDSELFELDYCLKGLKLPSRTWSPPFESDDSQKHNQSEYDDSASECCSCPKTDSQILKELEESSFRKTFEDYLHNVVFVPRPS
insulin receptor in the LB lymphoma cell, sequence (P15208 753-1372, chain 2 of 2): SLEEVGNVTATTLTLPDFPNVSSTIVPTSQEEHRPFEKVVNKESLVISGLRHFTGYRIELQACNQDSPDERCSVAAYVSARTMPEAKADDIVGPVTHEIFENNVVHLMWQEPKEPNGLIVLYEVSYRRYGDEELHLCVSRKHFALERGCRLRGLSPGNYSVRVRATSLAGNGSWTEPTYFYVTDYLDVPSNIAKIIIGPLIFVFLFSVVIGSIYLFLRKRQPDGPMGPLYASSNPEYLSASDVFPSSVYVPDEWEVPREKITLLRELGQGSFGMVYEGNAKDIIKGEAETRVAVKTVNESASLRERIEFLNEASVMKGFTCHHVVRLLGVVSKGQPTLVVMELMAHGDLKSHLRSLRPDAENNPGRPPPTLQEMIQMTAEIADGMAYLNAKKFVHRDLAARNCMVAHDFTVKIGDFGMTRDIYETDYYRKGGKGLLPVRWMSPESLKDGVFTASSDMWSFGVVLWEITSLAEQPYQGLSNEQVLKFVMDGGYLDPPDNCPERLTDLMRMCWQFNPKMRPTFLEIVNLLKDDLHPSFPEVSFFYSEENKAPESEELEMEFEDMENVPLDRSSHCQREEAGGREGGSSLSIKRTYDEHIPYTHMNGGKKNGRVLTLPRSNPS

binding affinity as percent of native insulin [1] | times less binding affinity than native insulin [1] | stability from insulin-degrading enzyme against ^125I A14 porcine insulin (TCA precipitation or HPLC assay) [2] | TCA assay analysis of degradation, 10 minutes incubation [2] | TCA assay analysis of degradation, 20 minutes incubation [2] | TCA solubility after 15 minutes of incubation, IDE dilution 1:30 [2] | Substance
20% | 5 times | – | – | – | – | des-(B26-B30)-[Glu-B10; Ser-B17; Tyr-B25-NH2] Radoyka I human insulin analogue (ligand)
10% | 10 times | 4.5 times | – | – | – | des-(B26-B30)-[Glu-B10; Thr-B14; Ser-B17; Tyr-B25-NH2] Radoyka II human insulin analogue (ligand)
– | – | – | 25.9% | 66.8% | 22.5% | ^125I A14 mono-iodo porcine insulin (from UniProt P01315 25-54) (ligand)

Source: patent US20030104981A1, “Human insulin analogues” (priority 1995, published 2003)
